Measured values published in patent US20220088148A1 (HANMI PHARM, published 2022).
Bridges are numbered along the chain shown (N, C = ends). Where no end group is shown, it is not given here. [ ]: non-standard residue; d: D form. The star is where a group is joined. Acetyl(2-(4-imidazolyl)) = O=C(Cc1c[nH]cn1)*; Aib = CC(C)(N)C(=O)O

Molecular target: human GLP-1 receptor (human, UniProt P43220 24-463)
Assay: cell-based or functional assay

Point of comparison: Y[Aib]QGTFTSDYSKYLDEKRAKEFVQWLLDHHCSSGQPPPS (bridge 16-20) [triple agonist of SEQ ID NO: 43], “In vitro activity (%) vs. GLP-1, cAMP EC50” value 12.6%. Against it:
- H[Aib]QGTFTSDYSKYLDEKRQKEFVNWLLAQKC (bridge 16-20) [triple agonist of SEQ ID NO: 34] — higher, 19.1%
- H[Aib]QGTFTSDVSSYLDGQAAKEFIAWLVKGC [triple agonist of SEQ ID NO: 1] — lower, 3.2%
- Y[Aib]QGTFTSDYSKYLDEKRAKEFVQWLLDHHPSSGQPPPSC (bridge 16-20) [triple agonist of SEQ ID NO: 42] — higher, 33.9%
- H[Aib]QGTFTSDVSSYLLGQQQKEFIAWLVKGGGPSSGAPPPSC [triple agonist of SEQ ID NO: 5] — higher, 42.1%
- H[Aib]QGTFTSDYSIAMDEIHQKDFVNWLLAQC (bridge 16-20) [triple agonist of SEQ ID NO: 55] — higher, 27.1%
- HGQGTFTSDCSKQLDGQAAQEFVAWLLAGGPSSGAPPPS [triple agonist of SEQ ID NO: 44] — lower, 1.3%
- HGQGTFTSDCSKYLDGQRAQDFVNWLLAGGPSSGAPPPS [triple agonist of SEQ ID NO: 48] — lower, 1.5%
- HGQGTFTSDCSKYMDGQAAQDFVAWLLAGGPSSGAPPPS [triple agonist of SEQ ID NO: 45] — lower, 6.6%
- HGQGTFTSDCSKYLDEQHAQEFVAWLLAGGPSSGAPPPS [triple agonist of SEQ ID NO: 46] — lower, 1.4%
- HGQGTFTSDCSKYLDGQRAQEFVAWLLAGGPSSGAPPPS [triple agonist of SEQ ID NO: 47] — lower, 2.4%
- H[Aib]EGTFTSDYSIAMDEIHQKDFVNWLLAQC (bridge 16-20) [triple agonist of SEQ ID NO: 53] — higher, 161%
- H[Aib]QGTFTSDYSKYLDEKRQKEFVQWLLDTC (bridge 16-20; ends not checked) [triple agonist of SEQ ID NO: 52] — higher, 44.1%
- H[Aib]QGTFTSDYSKYLDEKRQKEFVQWLLNTKC (bridge 16-20; ends not checked) [triple agonist of SEQ ID NO: 58] — higher, 39.1%
- H[Aib]QGTFTSDVSSYLLGQQQKEFIAWLVKGC [triple agonist of SEQ ID NO: 4] — lower, 8.5%
- H[Aib]QGTFTSDYSKYLDEKRQKEFVQWLLNTC (bridge 16-20; ends not checked) [triple agonist of SEQ ID NO: 51] — higher, 14.4%
- H[Aib]QGTFTSDYSIAMDEIHQKDFVNWLLNTC (bridge 16-20; ends not checked) [triple agonist of SEQ ID NO: 57] — lower, 11.7%
- H[Aib]EGTFTSDYSIAMDEIHQKDFVDWLLAEC (bridge 16-20; ends not checked) [triple agonist of SEQ ID NO: 54] — higher, 30.6%
- H[Aib]QGTFTSDYSIAMDEIHQKDFVNWLLNTKC (bridge 16-20) [triple agonist of SEQ ID NO: 35] — lower, 7.5%
- {Acetyl(2-(4-imidazolyl))}-[Aib]QGTFTSDYSICMDEIHQKDFVNWLLNTK (bridge 15-19) [triple agonist of SEQ ID NO: 49] — higher, 29.8%
- H[Aib]QGTFTSDVSSYLDGQAAKEFVAWLLKGC (ends and bridges not checked) [triple agonist of SEQ ID NO: 6] — higher, 17%
- H[Aib]QGTFTSDYSKYLDEKRAKEFVQWLLDHHPSSGQPPPSC (bridge 16-20; ends not checked) [triple agonist of SEQ ID NO: 50] — higher, 67.4%

Molecular target: human GCG receptor (human, UniProt P47871 26-477)
Sequence (P47871 26-477): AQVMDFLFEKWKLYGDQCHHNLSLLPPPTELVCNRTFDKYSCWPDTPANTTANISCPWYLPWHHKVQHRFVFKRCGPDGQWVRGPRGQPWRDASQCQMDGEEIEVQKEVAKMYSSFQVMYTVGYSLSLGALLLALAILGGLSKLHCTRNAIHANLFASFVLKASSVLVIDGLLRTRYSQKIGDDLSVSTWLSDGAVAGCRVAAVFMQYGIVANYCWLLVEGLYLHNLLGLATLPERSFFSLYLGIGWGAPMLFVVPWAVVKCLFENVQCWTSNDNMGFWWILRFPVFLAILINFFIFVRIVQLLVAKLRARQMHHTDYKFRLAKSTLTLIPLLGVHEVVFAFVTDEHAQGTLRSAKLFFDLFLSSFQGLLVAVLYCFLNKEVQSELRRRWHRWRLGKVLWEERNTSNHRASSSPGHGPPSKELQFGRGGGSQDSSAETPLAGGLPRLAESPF
Assay: cell-based or functional assay

Point of comparison: H[Aib]EGTFTSDYSIAMDEIHQKDFVDWLLAEC (bridge 16-20; ends not checked) [triple agonist of SEQ ID NO: 54], “In vitro activity (%) vs. Glucagon, cAMP EC50” value 1.4%. Against it:
- H[Aib]QGTFTSDYSKYLDEKRQKEFVNWLLAQKC (bridge 16-20) [triple agonist of SEQ ID NO: 34] — lower, 0.92%
- H[Aib]QGTFTSDVSSYLDGQAAKEFIAWLVKGC [triple agonist of SEQ ID NO: 1] — lower, < 0.1%
- Y[Aib]QGTFTSDYSKYLDEKRAKEFVQWLLDHHPSSGQPPPSC (bridge 16-20) [triple agonist of SEQ ID NO: 42] — higher, 206%
- H[Aib]QGTFTSDVSSYLLGQQQKEFIAWLVKGGGPSSGAPPPSC [triple agonist of SEQ ID NO: 5] — lower, < 0.1%
- Y[Aib]QGTFTSDYSKYLDEKRAKEFVQWLLDHHCSSGQPPPS (bridge 16-20) [triple agonist of SEQ ID NO: 43] — higher, 88.4%
- H[Aib]QGTFTSDYSIAMDEIHQKDFVNWLLAQC (bridge 16-20) [triple agonist of SEQ ID NO: 55] — lower, 0.7%
- HGQGTFTSDCSKQLDGQAAQEFVAWLLAGGPSSGAPPPS [triple agonist of SEQ ID NO: 44] — lower, < 0.1%
- HGQGTFTSDCSKYLDGQRAQDFVNWLLAGGPSSGAPPPS [triple agonist of SEQ ID NO: 48] — lower, < 0.1%
- HGQGTFTSDCSKYMDGQAAQDFVAWLLAGGPSSGAPPPS [triple agonist of SEQ ID NO: 45] — lower, < 0.1%
- HGQGTFTSDCSKYLDEQHAQEFVAWLLAGGPSSGAPPPS [triple agonist of SEQ ID NO: 46] — lower, < 0.1%
- HGQGTFTSDCSKYLDGQRAQEFVAWLLAGGPSSGAPPPS [triple agonist of SEQ ID NO: 47] — lower, < 0.1%
- H[Aib]EGTFTSDYSIAMDEIHQKDFVNWLLAQC (bridge 16-20) [triple agonist of SEQ ID NO: 53] — higher, 8.4%
- H[Aib]QGTFTSDYSKYLDEKRQKEFVQWLLDTC (bridge 16-20; ends not checked) [triple agonist of SEQ ID NO: 52] — higher, 7.5%
- H[Aib]QGTFTSDYSKYLDEKRQKEFVQWLLNTKC (bridge 16-20; ends not checked) [triple agonist of SEQ ID NO: 58] — higher, 2.6%
- H[Aib]QGTFTSDVSSYLLGQQQKEFIAWLVKGC [triple agonist of SEQ ID NO: 4] — lower, < 0.1%
- H[Aib]QGTFTSDYSKYLDEKRQKEFVQWLLNTC (bridge 16-20; ends not checked) [triple agonist of SEQ ID NO: 51] — higher, 2%
- H[Aib]QGTFTSDYSIAMDEIHQKDFVNWLLNTC (bridge 16-20; ends not checked) [triple agonist of SEQ ID NO: 57] — lower, < 0.1%
- H[Aib]QGTFTSDYSIAMDEIHQKDFVNWLLNTKC (bridge 16-20) [triple agonist of SEQ ID NO: 35] — lower, < 0.1%
- {Acetyl(2-(4-imidazolyl))}-[Aib]QGTFTSDYSICMDEIHQKDFVNWLLNTK (bridge 15-19) [triple agonist of SEQ ID NO: 49] — lower, < 0.1%
- H[Aib]QGTFTSDVSSYLDGQAAKEFVAWLLKGC (ends and bridges not checked) [triple agonist of SEQ ID NO: 6] — lower, < 0.1%
- H[Aib]QGTFTSDYSKYLDEKRAKEFVQWLLDHHPSSGQPPPSC (bridge 16-20; ends not checked) [triple agonist of SEQ ID NO: 50] — higher, 50.5%

Molecular target: T1, human GIP receptor (human, UniProt P48546 22-466)
T1 sequence (looked up): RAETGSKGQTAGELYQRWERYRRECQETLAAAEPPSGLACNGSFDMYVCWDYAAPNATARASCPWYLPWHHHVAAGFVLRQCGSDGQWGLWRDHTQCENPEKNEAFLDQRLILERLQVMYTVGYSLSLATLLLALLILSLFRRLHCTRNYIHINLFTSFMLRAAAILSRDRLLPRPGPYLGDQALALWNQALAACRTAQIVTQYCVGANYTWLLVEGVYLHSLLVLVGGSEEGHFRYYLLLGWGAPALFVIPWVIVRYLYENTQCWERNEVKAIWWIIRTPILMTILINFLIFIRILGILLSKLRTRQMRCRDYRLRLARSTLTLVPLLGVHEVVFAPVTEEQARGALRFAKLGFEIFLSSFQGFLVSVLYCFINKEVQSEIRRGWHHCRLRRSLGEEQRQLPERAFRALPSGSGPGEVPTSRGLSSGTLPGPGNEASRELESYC
Assay: cell-based or functional assay

Point of comparison: H[Aib]QGTFTSDYSIAMDEIHQKDFVNWLLNTC (bridge 16-20; ends not checked) [triple agonist of SEQ ID NO: 57], “In vitro activity (%) vs. GIP, cAMP EC50” value 0.3%. Against it:
- H[Aib]QGTFTSDYSKYLDEKRQKEFVNWLLAQKC (bridge 16-20) [triple agonist of SEQ ID NO: 34] — higher, 0.6%
- H[Aib]QGTFTSDVSSYLDGQAAKEFIAWLVKGC [triple agonist of SEQ ID NO: 1] — lower, < 0.1%
- Y[Aib]QGTFTSDYSKYLDEKRAKEFVQWLLDHHPSSGQPPPSC (bridge 16-20) [triple agonist of SEQ ID NO: 42] — higher, 7.8%
- H[Aib]QGTFTSDVSSYLLGQQQKEFIAWLVKGGGPSSGAPPPSC [triple agonist of SEQ ID NO: 5] — lower, < 0.1%
- Y[Aib]QGTFTSDYSKYLDEKRAKEFVQWLLDHHCSSGQPPPS (bridge 16-20) [triple agonist of SEQ ID NO: 43] — higher, 3.7%
- H[Aib]QGTFTSDYSIAMDEIHQKDFVNWLLAQC (bridge 16-20) [triple agonist of SEQ ID NO: 55] — higher, 2.4%
- HGQGTFTSDCSKQLDGQAAQEFVAWLLAGGPSSGAPPPS [triple agonist of SEQ ID NO: 44] — lower, < 0.1%
- HGQGTFTSDCSKYLDGQRAQDFVNWLLAGGPSSGAPPPS [triple agonist of SEQ ID NO: 48] — lower, < 0.1%
- HGQGTFTSDCSKYMDGQAAQDFVAWLLAGGPSSGAPPPS [triple agonist of SEQ ID NO: 45] — lower, < 0.1%
- HGQGTFTSDCSKYLDEQHAQEFVAWLLAGGPSSGAPPPS [triple agonist of SEQ ID NO: 46] — lower, < 0.1%
- HGQGTFTSDCSKYLDGQRAQEFVAWLLAGGPSSGAPPPS [triple agonist of SEQ ID NO: 47] — lower, < 0.1%
- H[Aib]EGTFTSDYSIAMDEIHQKDFVNWLLAQC (bridge 16-20) [triple agonist of SEQ ID NO: 53] — higher, 1.3%
- H[Aib]QGTFTSDYSKYLDEKRQKEFVQWLLDTC (bridge 16-20; ends not checked) [triple agonist of SEQ ID NO: 52] — the same, 0.3%
- H[Aib]QGTFTSDYSKYLDEKRQKEFVQWLLNTKC (bridge 16-20; ends not checked) [triple agonist of SEQ ID NO: 58] — lower, 0.2%
- H[Aib]QGTFTSDVSSYLLGQQQKEFIAWLVKGC [triple agonist of SEQ ID NO: 4] — lower, < 0.1%
- H[Aib]QGTFTSDYSKYLDEKRQKEFVQWLLNTC (bridge 16-20; ends not checked) [triple agonist of SEQ ID NO: 51] — lower, 0.1%
- H[Aib]EGTFTSDYSIAMDEIHQKDFVDWLLAEC (bridge 16-20; ends not checked) [triple agonist of SEQ ID NO: 54] — lower, 0.1%
- H[Aib]QGTFTSDYSIAMDEIHQKDFVNWLLNTKC (bridge 16-20) [triple agonist of SEQ ID NO: 35] — higher, 1.3%
- {Acetyl(2-(4-imidazolyl))}-[Aib]QGTFTSDYSICMDEIHQKDFVNWLLNTK (bridge 15-19) [triple agonist of SEQ ID NO: 49] — higher, 3.3%
- H[Aib]QGTFTSDVSSYLDGQAAKEFVAWLLKGC (ends and bridges not checked) [triple agonist of SEQ ID NO: 6] — lower, < 0.1%
- H[Aib]QGTFTSDYSKYLDEKRAKEFVQWLLDHHPSSGQPPPSC (bridge 16-20; ends not checked) [triple agonist of SEQ ID NO: 50] — higher, 2.7%
